# According to patent US20200283478A1 (Genentech, published 2020):
# Bridge positions count the residues as written; N and C are the ends.
# B1: Compound 29 (Ac-SG-CFIPWNLQRIGLLC-NH2) (peptide)
# peptide: Ac-SGCFIPWNLQRIGLLC-NH2
# modifications: disulfide 3-16
# SMILES: CC[C@H](C)[C@@H]1NC(=O)[C@H](CCCNC(=N)N)NC(=O)[C@H](CCC(N)=O)NC(=O)[C@H](CC(C)C)NC(=O)[C@H](CC(N)=O)NC(=O)[C@H](Cc2c[nH]c3ccccc23)NC(=O)[C@@H]2CCCN2C(=O)[C@H]([C@@H](C)CC)NC(=O)[C@H](Cc2ccccc2)NC(=O)[C@@H](NC(=O)CNC(=O)[C@H](CO)NC(C)=O)CSSC[C@@H](C(N)=O)NC(=O)[C@H](CC(C)C)NC(=O)[C@H](CC(C)C)NC(=O)CNC1=O
# B2: Compound 31 (Ac-CFIPWNLQRIGLLC-NH2) (peptide)
# peptide: Ac-CFIPWNLQRIGLLC-NH2
# modifications: disulfide 1-14
# SMILES: CC[C@H](C)[C@@H]1NC(=O)[C@H](CCCNC(=N)N)NC(=O)[C@H](CCC(N)=O)NC(=O)[C@H](CC(C)C)NC(=O)[C@H](CC(N)=O)NC(=O)[C@H](Cc2c[nH]c3ccccc23)NC(=O)[C@@H]2CCCN2C(=O)[C@H]([C@@H](C)CC)NC(=O)[C@H](Cc2ccccc2)NC(=O)[C@@H](NC(C)=O)CSSC[C@@H](C(N)=O)NC(=O)[C@H](CC(C)C)NC(=O)[C@H](CC(C)C)NC(=O)CNC1=O
# B3: Compound 32 (Ac-CRLPWNLQRIGLPC-NH2) (peptide)
# peptide: Ac-CRLPWNLQRIGLPC-NH2
# modifications: disulfide 1-14
# SMILES: CC[C@H](C)[C@@H]1NC(=O)[C@H](CCCNC(=N)N)NC(=O)[C@H](CCC(N)=O)NC(=O)[C@H](CC(C)C)NC(=O)[C@H](CC(N)=O)NC(=O)[C@H](Cc2c[nH]c3ccccc23)NC(=O)[C@@H]2CCCN2C(=O)[C@H](CC(C)C)NC(=O)[C@H](CCCNC(=N)N)NC(=O)[C@@H](NC(C)=O)CSSC[C@@H](C(N)=O)NC(=O)[C@@H]2CCCN2C(=O)[C@H](CC(C)C)NC(=O)CNC1=O
# B4: Compound 69 (Ac-CRLPWNLQRIGAPC-NH2) (peptide)
# peptide: Ac-CRLPWNLQRIGAPC-NH2
# modifications: disulfide 1-14
# SMILES: CC[C@H](C)[C@@H]1NC(=O)[C@H](CCCNC(=N)N)NC(=O)[C@H](CCC(N)=O)NC(=O)[C@H](CC(C)C)NC(=O)[C@H](CC(N)=O)NC(=O)[C@H](Cc2c[nH]c3ccccc23)NC(=O)[C@@H]2CCCN2C(=O)[C@H](CC(C)C)NC(=O)[C@H](CCCNC(=N)N)NC(=O)[C@@H](NC(C)=O)CSSC[C@@H](C(N)=O)NC(=O)[C@@H]2CCCN2C(=O)[C@H](C)NC(=O)CNC1=O
# B5: Compound 67 (Ac-CRLPWNLKRIGLPC-NH2) (peptide)
# peptide: Ac-CRLPWNLKRIGLPC-NH2
# modifications: disulfide 1-14
# SMILES: CC[C@H](C)[C@@H]1NC(=O)[C@H](CCCNC(=N)N)NC(=O)[C@H](CCCCN)NC(=O)[C@H](CC(C)C)NC(=O)[C@H](CC(N)=O)NC(=O)[C@H](Cc2c[nH]c3ccccc23)NC(=O)[C@@H]2CCCN2C(=O)[C@H](CC(C)C)NC(=O)[C@H](CCCNC(=N)N)NC(=O)[C@@H](NC(C)=O)CSSC[C@@H](C(N)=O)NC(=O)[C@@H]2CCCN2C(=O)[C@H](CC(C)C)NC(=O)CNC1=O
# B6: Compound 68 (Ac-CRLPWNLQRIGLAC-NH2) (peptide)
# peptide: Ac-CRLPWNLQRIGLAC-NH2
# modifications: disulfide 1-14
# SMILES: CC[C@H](C)[C@@H]1NC(=O)[C@H](CCCNC(=N)N)NC(=O)[C@H](CCC(N)=O)NC(=O)[C@H](CC(C)C)NC(=O)[C@H](CC(N)=O)NC(=O)[C@H](Cc2c[nH]c3ccccc23)NC(=O)[C@@H]2CCCN2C(=O)[C@H](CC(C)C)NC(=O)[C@H](CCCNC(=N)N)NC(=O)[C@@H](NC(C)=O)CSSC[C@@H](C(N)=O)NC(=O)[C@H](C)NC(=O)[C@H](CC(C)C)NC(=O)CNC1=O
# B7: Compound 30 (Ac-SG-CRLPWNLQRIGLPC-NH2) (peptide)
# peptide: Ac-SGCRLPWNLQRIGLPC-NH2
# modifications: disulfide 3-16
# Assays:
# [1] = target: T1, His-tagged, full-length PCSK9 (human, UniProt Q8NBP7 31-692); test: TR-FRET competition (PCSK9/EGF(A) assay); competitor EGF(A)-Fc;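 further: proximity signal from anti-His APC on PCSK9 paired with anti-Fc europium on the Fc ligand, read as normalized TR-FRET ratio across compound dilutions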
# T1 construct: secreted PCSK9 is autocatalytically cleaved into prodomain and catalytic domain + CRD (from S153), which stay associated; also called His-PCSK9; proprotein convertase subtilisin/kexin type 9; not shown: His tag
# [2] = target: T2, His-tagged PCSK9Δhelix (human, UniProt Q8NBP7 31-152; Q8NBP7 168-692); test: TR-FRET competition (PCSK9Δhelix/Ab20 assay); competitor Ab20
# T2 construct: Human PCSK9 M1-Q692 with an engineered TEV site, cut by TEV protease; new N-terminus of the catalytic domain is S-A168; also called His-PCSK9Δhelix; not shown: His tag
# T2 sequence (Q8NBP7 31-152, stated change not applied, chain 1 of 2): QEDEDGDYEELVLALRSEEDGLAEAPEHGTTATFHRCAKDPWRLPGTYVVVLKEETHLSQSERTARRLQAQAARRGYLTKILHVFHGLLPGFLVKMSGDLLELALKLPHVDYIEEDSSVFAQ
# T2 sequence (Q8NBP7 other isoform, or with tags, fused parts or gaps mutant, chain 2 of 2): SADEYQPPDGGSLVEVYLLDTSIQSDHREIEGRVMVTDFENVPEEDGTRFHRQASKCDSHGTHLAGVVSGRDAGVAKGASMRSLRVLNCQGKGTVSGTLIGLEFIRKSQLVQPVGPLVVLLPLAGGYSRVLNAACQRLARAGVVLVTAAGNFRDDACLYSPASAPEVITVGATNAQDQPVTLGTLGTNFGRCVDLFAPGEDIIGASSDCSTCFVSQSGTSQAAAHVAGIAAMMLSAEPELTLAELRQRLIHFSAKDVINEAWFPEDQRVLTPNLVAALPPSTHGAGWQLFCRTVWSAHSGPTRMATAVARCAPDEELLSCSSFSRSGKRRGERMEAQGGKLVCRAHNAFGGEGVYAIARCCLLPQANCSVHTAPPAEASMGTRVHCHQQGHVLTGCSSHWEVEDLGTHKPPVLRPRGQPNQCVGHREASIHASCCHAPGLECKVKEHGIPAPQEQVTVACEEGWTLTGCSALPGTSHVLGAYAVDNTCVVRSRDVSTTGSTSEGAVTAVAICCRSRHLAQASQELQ
# T1 sequence (Q8NBP7 31-692 limits assumed): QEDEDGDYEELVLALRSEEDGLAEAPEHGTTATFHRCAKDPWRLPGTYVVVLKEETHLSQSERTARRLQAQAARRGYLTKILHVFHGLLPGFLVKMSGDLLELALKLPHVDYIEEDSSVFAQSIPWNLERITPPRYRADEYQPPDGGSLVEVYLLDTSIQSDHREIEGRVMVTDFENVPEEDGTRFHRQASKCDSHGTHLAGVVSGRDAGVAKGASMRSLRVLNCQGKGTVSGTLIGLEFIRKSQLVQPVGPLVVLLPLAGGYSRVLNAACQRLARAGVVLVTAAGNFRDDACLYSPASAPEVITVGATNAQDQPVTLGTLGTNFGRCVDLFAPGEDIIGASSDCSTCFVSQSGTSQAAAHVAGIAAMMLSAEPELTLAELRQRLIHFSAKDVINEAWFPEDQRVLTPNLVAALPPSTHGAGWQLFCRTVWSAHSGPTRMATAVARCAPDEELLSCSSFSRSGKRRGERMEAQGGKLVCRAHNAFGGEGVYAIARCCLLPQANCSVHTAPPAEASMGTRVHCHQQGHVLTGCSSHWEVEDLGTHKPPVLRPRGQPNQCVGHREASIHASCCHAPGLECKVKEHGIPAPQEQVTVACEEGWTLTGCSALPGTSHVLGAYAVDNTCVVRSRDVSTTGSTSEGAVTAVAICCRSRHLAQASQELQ
Binder,IC50 [1],IC50 [2]
B1,> 50000 nM,1900 nM
B2,> 50000 nM,2400 nM
B3,> 50000 nM,970 nM
B4,> 50000 nM,6640 nM
B5,> 50000 nM,699 nM
B6,> 50000 nM,939 nM
B7,> 50000 nM,950 nM
